From patent US20140187491A1 (Bayer, published 2014)
Ends that are not written are not given here.

T1: human LGR7/RXFP1 receptor (human, UniProt Q9HBX9 1-757)
T1 sequence (looked up): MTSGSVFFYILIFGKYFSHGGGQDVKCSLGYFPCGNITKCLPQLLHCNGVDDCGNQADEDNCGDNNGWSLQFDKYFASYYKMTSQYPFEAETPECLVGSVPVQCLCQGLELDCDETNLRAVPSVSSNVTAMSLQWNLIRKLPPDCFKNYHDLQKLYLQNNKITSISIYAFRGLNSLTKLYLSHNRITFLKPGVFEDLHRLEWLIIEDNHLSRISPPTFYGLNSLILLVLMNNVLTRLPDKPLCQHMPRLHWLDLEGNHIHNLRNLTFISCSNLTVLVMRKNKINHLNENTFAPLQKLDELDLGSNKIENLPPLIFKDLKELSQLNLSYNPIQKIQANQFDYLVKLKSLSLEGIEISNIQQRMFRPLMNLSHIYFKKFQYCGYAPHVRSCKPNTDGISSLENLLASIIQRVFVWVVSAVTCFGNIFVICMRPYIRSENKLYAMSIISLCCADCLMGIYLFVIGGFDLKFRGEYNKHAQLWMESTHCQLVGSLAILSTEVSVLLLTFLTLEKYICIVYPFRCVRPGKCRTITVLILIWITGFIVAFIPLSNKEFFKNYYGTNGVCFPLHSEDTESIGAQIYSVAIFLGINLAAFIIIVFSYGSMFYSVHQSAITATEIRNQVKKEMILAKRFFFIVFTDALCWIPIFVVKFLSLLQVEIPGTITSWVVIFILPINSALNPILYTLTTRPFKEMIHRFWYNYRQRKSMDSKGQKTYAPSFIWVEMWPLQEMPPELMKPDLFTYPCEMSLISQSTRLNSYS

B1: scR-Fc 12 (Fc fusion)
chain: HHHHHHPTCPTCHKCPVPELLGGPSVFIFPPKPKDILLISQNAKVTCVVVDVSEEEPDVQFSWFVNNVEVHTAQTQPREEQYNSTFRVVSALPIQHQDWMSGKEFKCKVNNKALPSPIEKTISKPKGLVRKPQVYVMGPPTEQLTEQTVSLTCLTSGFLPNDIGVEWTSNGHIEKNYKNTEPVMDSDGSFFMYSKLNVERSRWDSRAPFVCSVVHEGLHNHHVEKSISRPPGKGGSGGSPQLYSALANKCCHVGCTKRSLARFCGGGSGGGSGSWMEEVIKLCGRELVRAQIAICGMSTWS
B2: scR-Fc 11 (Fc fusion)
chain: HHHHHHPTCPTCHKCPVPELLGGPSVFIFPPKPKDILLISQNAKVTCVVVDVSEEEPDVQFSWFVNNVEVHTAQTQPREEQYNSTFRVVSALPIQHQDWMSGKEFKCKVNNKALPSPIEKTISKPKGLVRKPQVYVMGPPTEQLTEQTVSLTCLTSGFLPNDIGVEWTSNGHIEKNYKNTEPVMDSDGSFFMYSKLNVERSRWDSRAPFVCSVVHEGLHNHHVEKSISRPPGKGGSPQLYSALANKCCHVGCTKRSLARFCGGGSGGGSGSWMEEVIKLCGRELVRAQIAICGMSTWS
B3: human Relaxin 2 (ligand)
chain 1: QLYSALANKCCHVGCTKRSLARFC
chain 2: SWMEEVIKLCGRELVRAQIAICGMSTWS
B4: scR-Fc 13 (Fc fusion)
chain: HHHHHHPTCPTCHKCPVPELLGGPSVFIFPPKPKDILLISQNAKVTCVVVDVSEEEPDVQFSWFVNNVEVHTAQTQPREEQYNSTFRVVSALPIQHQDWMSGKEFKCKVNNKALPSPIEKTISKPKGLVRKPQVYVMGPPTEQLTEQTVSLTCLTSGFLPNDIGVEWTSNGHIEKNYKNTEPVMDSDGSFFMYSKLNVERSRWDSRAPFVCSVVHEGLHNHHVEKSISRPPGKGGSGGSGGSPQLYSALANKCCHVGCTKRSLARFCGGGSGGGSGSWMEEVIKLCGRELVRAQIAICGMSTWS
B5: scR-Fc 17 (Fc fusion)
chain: QLYSALANKCCHVGCTKRSLARFCGGGSGGGSGSWMEEVIKLCGRELVRAQIAICGMSTWSGSGSGSPTCPTCHKCPVPELLGGPSVFIFPPKPKDILLISQNAKVTCVVVDVSEEEPDVQFSWFVNNVEVHTAQTQPREEQYNSTFRVVSALPIQHQDWMSGKEFKCKVNNKALPSPIEKTISKPKGLVRKPQVYVMGPPTEQLTEQTVSLTCLTSGFLPNDIGVEWTSNGHIEKNYKNTEPVMDSDGSFFMYSKLNVERSRWDSRAPFVCSVVHEGLHNHHVEKSISRPPGK
B6: scR-Fc 9 (Fc fusion)
chain: QLYSALANKCCHVGCTKRSLARFCGGGSGGGSGSWMEEVIKLCGRELVRAQIAICGMSTWSGGSGGSPTCPTCHKCPVPELLGGPSVFIFPPKPKDILLISQNAKVTCVVVDVSEEEPDVQFSWFVNNVEVHTAQTQPREEQYNSTFRVVSALPIQHQDWMSGKEFKCKVNNKALPSPIEKTISKPKGLVRKPQVYVMGPPTEQLTEQTVSLTCLTSGFLPNDIGVEWTSNGHIEKNYKNTEPVMDSDGSFFMYSKLNVERSRWDSRAPFVCSVVHEGLHNHHVEKSISRPPGKHHHHHH
B7: scR-Fc 10 (Fc fusion)
chain: QLYSALANKCCHVGCTKRSLARFCGGGSGGGSGSWMEEVIKLCGRELVRAQIAICGMSTWSGGSGGSGGSPTCPTCHKCPVPELLGGPSVFIFPPKPKDILLISQNAKVTCVVVDVSEEEPDVQFSWFVNNVEVHTAQTQPREEQYNSTFRVVSALPIQHQDWMSGKEFKCKVNNKALPSPIEKTISKPKGLVRKPQVYVMGPPTEQLTEQTVSLTCLTSGFLPNDIGVEWTSNGHIEKNYKNTEPVMDSDGSFFMYSKLNVERSRWDSRAPFVCSVVHEGLHNHHVEKSISRPPGKHHHHHH
B8: scR-Var2 (ligand)
chain: GCGSGGQLYSALANKCCHVGCTKRSLARFCGGGSGGGSGSWMEEVIKLCGRELVRAQIAICGMSTWS
B9: scR-Fc 8 (Fc fusion)
chain: QLYSALANKCCHVGCTKRSLARFCGGGSGGGSGSWMEEVIKLCGRELVRAQIAICGMSTWSGGSPTCPTCHKCPVPELLGGPSVFIFPPKPKDILLISQNAKVTCVVVDVSEEEPDVQFSWFVNNVEVHTAQTQPREEQYNSTFRVVSALPIQHQDWMSGKEFKCKVNNKALPSPIEKTISKPKGLVRKPQVYVMGPPTEQLTEQTVSLTCLTSGFLPNDIGVEWTSNGHIEKNYKNTEPVMDSDGSFFMYSKLNVERSRWDSRAPFVCSVVHEGLHNHHVEKSISRPPGKHHHHHH
B10: scR-Var1 (ligand)
chain: QLYSALANKCCHVGCTKRSLARFCGGGSGGGSGSWMEEVIKLCGRELVRAQIAICGMSTWSGGSGCG
B11: scR11 (ligand)
chain: QLYSALANKCCHVGCTKRSLARFCGGGSGCGGSGSWMEEVIKLCGRELVRAQIAICGMSTWS
B12: scR12 (ligand)
chain: QLYSALANKCCHVGCTKRSLARFCGGGSGKGGSGSWMEEVIKLCGRELVRAQIAICGMSTWS
B13: scR14 (ligand)
chain: DVLAGLSSSCCKWGCSKSEISSLCGGGSGGGSGRAAPYGVRLCGREFIRAVIFTCGGSRW
modifications: ends and bridges not checked; cysteine pairing not given here
B14: scR4 (ligand)
chain: EQKLISEEDLQLYSALANKCCHVGCTKRSLARFCGGGSGGGSGSWMEEVIKLCGRELVRAQIAICGMSTWSYPYDVPDYAHHHHHH
B15: scR8 (ligand)
chain: EQKLISEEDLQLYSALANKCCHVGCTKRSLARFCGGGSGGGSGGGSSWMEEVIKLCGRELVRAQIAICGMSTWS
B16: scR3 (ligand)
chain: EQKLISEEDLQLYSALANKCCHVGCTKRSLARFCGGGSGGGSWMEEVIKLCGRELVRAQIAICGMSTWSYPYDVPDYAHHHHHH
B17: scR5 (ligand)
chain: EQKLISEEDLQLYSALANKCCHVGCTKRSLARFCGGGSGGGSGGGSWMEEVIKLCGRELVRAQIAICGMSTWSYPYDVPDYAHHHHHH
B18: scR9 (ligand)
chain: EQKLISEEDLQLYSALANKCCHVGCTKRSLARFCGGGSGGGSGGGSGSWMEEVIKLCGRELVRAQIAICGMSTWS
B19: scR7 (ligand)
chain: EQKLISEEDLQLYSALANKCCHVGCTKRSLARFCGGGSGGSWMEEVIKLCGRELVRAQIAICGMSTWS
B20: scR17 (ligand)
chain: EQKLISEEDLDVLAGLSSSCCKWGCSKSEISSLCGGGSGGGSGSWMEEVIKLCGRELVRAQIAICGMSTWS
B21: scR15 (ligand)
chain: EQKLISEEDLDVLAGLSSSCCKWGCSKSEISSLCGGGSGGGSGRAAPYGVRLCGREFIRAVIFTCGGSRW
B22: human Relaxin 3 (ligand)
chain 1: DVLAGLSSSCCKWGCSKSEISSLC
chain 2: RAAPYGVRLCGREFIRAVIFTCGGSRW
B23: scR10 (ligand)
chain: EQKLISEEDLQLYSALANKCCHVGCTKRSLARFCGGGSGGGSGGGSGGSWMEEVIKLCGRELVRAQIAICGMSTWS

target: T1, human LGR7/RXFP1 receptor; assay: cell-based or functional assay

In order of falling “EC50 (M), CRE-luciferase reporter in CHO-CRE-LGR7 cells” value:
1. B10  1.1e-07 M
2. B8  4.2e-08 M
3. B6  9.9e-09 M
4. B9  7.2e-09 M
5. B7  4.8e-09 M
6. B5  2.5e-09 M
7. B2  1.2e-09 M
8. B1  9.5e-10 M
9. B4  8.9e-10 M
10. B3  3.5e-11 M

target: T1, human LGR7/RXFP1 receptor; assay: cell-based or functional assay; remark: another data set of the same source

In order of rising “EC50 (M), CRE-luciferase reporter in CHO-CRE-LGR7 cells” value:
1. B3  2.6e-11 M
2. B14  3.4e-11 M
3. B17  3.7e-11 M
4. B16  7.7e-11 M
5. B13  5.9e-10 M
6. B21  6.2e-10 M
7. B22  2.3e-09 M
8. B20  1.3e-08 M
9. B15  2.4e-08 M
10. B11  2.5e-08 M
11. B12  3.6e-08 M
12. B23  4.4e-08 M
13. B19  5.3e-08 M
14. B18  1.1e-07 M
